Values of other authors as cited in US20090004190A1, “Rage Fusion Proteins And Methods Of Use” (priority 2006, published 2009).

Experiments:
[1] = assessed by retention of immunoreactivity sRAGE

human sRAGE: human soluble RAGE (SEQ ID NO: 4)
half-life in plasma: about 2 hours | half-life [1]: less than 2 hours
